This is an account of results in publication PMC9800720, “Size-advantage of monovalent nanobodies against the macrophage mannose receptor for deep tumor penetration and tumor-associated macrophage targeting” (Theranostics, 2023).

The target in this test is T1, recombinant murine MMR protein (Macrophage Mannose Receptor, CD206) (Mus musculus, UniProt Q61830).
T1 construct: Macrophage Mannose Receptor (MMR, CD206), mouse, recombinant protein of R&D systems, catalogue 2535-MM; also called recombinant mouse MMR protein; MMR Ag; source: bought: R&D systems (2535-MM)
Kind of test: SPR; Biacore T200; recombinant murine MMR immobilised on a CM5 chip by amine coupling at pH 5; Nbs injected in three-fold dilutions from 100 to 0.4 nM; 25 °C, HEPES buffered saline, 30 µL/min; association 180 s, dissociation 600 s; table gives two sets of rate constants (ka1/kd1, ka2/kd2); affinity of the bivalent Nb called apparent. To be noted: both partners purified. A general note: SPR reads the build-up and loss of mass on a sensor chip optically.

T1 sequence (Q61830 20-1388): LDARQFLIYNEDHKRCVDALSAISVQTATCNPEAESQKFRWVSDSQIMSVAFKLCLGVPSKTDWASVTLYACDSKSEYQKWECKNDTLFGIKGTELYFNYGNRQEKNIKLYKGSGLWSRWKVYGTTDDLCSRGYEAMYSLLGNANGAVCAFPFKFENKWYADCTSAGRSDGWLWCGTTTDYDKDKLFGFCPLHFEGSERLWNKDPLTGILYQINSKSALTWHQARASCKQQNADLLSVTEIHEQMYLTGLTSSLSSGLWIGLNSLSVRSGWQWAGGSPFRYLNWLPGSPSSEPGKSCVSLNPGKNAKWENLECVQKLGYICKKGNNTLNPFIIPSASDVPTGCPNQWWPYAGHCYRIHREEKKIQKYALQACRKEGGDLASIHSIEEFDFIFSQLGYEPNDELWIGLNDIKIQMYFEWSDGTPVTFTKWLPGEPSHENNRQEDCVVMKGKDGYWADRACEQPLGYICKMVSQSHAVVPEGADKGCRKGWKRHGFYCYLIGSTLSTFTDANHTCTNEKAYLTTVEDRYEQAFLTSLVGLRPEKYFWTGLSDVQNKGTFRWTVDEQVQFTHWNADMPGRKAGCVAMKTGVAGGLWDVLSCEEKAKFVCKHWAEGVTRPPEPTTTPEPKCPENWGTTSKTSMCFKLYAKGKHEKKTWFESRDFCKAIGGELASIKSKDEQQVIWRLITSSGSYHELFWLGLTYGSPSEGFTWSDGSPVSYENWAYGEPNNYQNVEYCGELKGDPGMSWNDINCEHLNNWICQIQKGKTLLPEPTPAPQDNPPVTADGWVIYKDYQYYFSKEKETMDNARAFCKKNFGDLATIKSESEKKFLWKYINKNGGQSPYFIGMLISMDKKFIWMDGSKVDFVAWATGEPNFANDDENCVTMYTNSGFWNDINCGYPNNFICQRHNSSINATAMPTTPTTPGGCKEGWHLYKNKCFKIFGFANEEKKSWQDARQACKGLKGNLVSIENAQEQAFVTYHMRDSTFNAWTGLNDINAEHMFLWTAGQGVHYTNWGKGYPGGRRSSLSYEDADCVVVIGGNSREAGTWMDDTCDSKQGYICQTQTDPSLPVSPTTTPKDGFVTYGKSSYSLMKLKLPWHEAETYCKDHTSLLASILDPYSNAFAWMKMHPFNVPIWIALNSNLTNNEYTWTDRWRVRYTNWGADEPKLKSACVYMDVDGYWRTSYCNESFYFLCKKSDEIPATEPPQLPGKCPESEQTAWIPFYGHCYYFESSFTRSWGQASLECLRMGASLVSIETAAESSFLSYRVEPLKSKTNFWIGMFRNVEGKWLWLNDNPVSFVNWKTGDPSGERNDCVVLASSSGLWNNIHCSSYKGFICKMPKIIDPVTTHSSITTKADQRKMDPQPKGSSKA

B1: monovalent anti-Macrophage Mannose Receptor nanobody, (m)anti-MMR Nb (VHH)
VHH: QVQLQESGGGLVQPGGSLRLSCAASGNIFSINAIGWYRQAPGKQRELVATITLSGSTNYADSVKGRFSISRDNAKNTVYLQMNSLKPEDTAVYYCNANTYSDSDVYGYWGQGTQVTVSS
notes: anti-MMR nanobody MMRCl1; also called (m)anti-MMR Nbs; MMRCl1; source: E. coli WK6, periplasmic extract, purified (Ni-NTA, SEC); not shown: His6, C-terminal, kept
As for B1, the Kd is 25 nM.
